Among the data in paper PMC10878793 are stoichiometry N, IC50 and Kd values, retold here.

In assay [1] the target is human cytochrome b5 T70C, unlabeled (human) (UniProt P00167). In words: SDS-PAGE with and without reducing agent; purified b5 variant run with or without β-mercaptoethanol (10%, v/v) or DTT; monomer at 17 kDa, dimer at 34 kDa; disulfide-linked dimer.
Assay [2] addresses P450 17A1 peptide (putative b5 binding site of P450 17A1) (human). In words: fluorescence polarisation; competition: nonlabeled WT b5 at various concentrations added to the complex of Alexa 488-b5 T70C (10 nM) and P450 17A1 peptide (100 μM).
For assay [3] the target is unchanged. Put plainly: fluorescence polarisation; competition: nonlabeled WT b5 at various concentrations added to the complex of Alexa 488-b5 K77C (10 nM) and P450 17A1 peptide (100 μM). A general note: In fluorescence polarisation assays a small probe gives low polarisation when free and higher when bound to something large.
Assay [4] concerns the target previously constructed Alexa 488-T70C-b5 (ref. 19; nonspecifically labelled) (human) (UniProt P00167). In words: SDS-PAGE with and without reducing agent; purified b5 variant run with or without β-mercaptoethanol (10%, v/v) or DTT; monomer at 17 kDa, dimer at 34 kDa; disulfide-linked dimer.
Assay [5] has as its target cytochrome P450 17A1 (Homo sapiens) (UniProt P05093). In words: surface plasmon resonance. The settings on record: cited from earlier work. (In general: SPR reads the build-up and loss of mass on a sensor chip optically.)
In assay [6] the target is human cytochrome b5 K24C, unlabeled (human) (UniProt P00167). Put plainly: SDS-PAGE with and without reducing agent; purified b5 variant run with or without β-mercaptoethanol (10%, v/v) or DTT; monomer at 17 kDa, dimer at 34 kDa; disulfide-linked dimer.
For assay [7], the target named is Alexa 488-labeled human cytochrome b5 K77C (human) (UniProt P00167). In words: fluorescence polarisation; P450 17A1 protein or P450 17A1 peptide added to Alexa 488-labeled b5 variant (10 nM) in 1 mM potassium phosphate buffer, pH 7.4, 384-well plate, 50 μl; anisotropy fitted with a quadratic equation.
The target of assay [8] is Alexa 488-labeled human cytochrome b5 T70C (singly labelled at Cys-70, this paper) (human) (UniProt P00167). The description is as above.

What is called stoichiometry N is the number of molecules, sites or subunits per partner or assembly. In assay [1], “human cytochrome b5 T70C, unlabeled (from UniProt P00167 1-134) (natural protein)” displayed a stoichiometry N of 2.

What is called IC50 is the concentration that inhibits the measured activity by half. For the molecule “human cytochrome b5, WT, nonlabeled (from UniProt P00167 1-134) (natural protein)”, the half-maximal inhibitory concentration (IC50) in assay [2] is 129 nM; in assay [3], 223 nM.

In the case of “previously constructed Alexa 488-T70C-b5 (ref. 19; nonspecifically labelled) (from UniProt P00167 1-134) (natural protein)”, the stoichiometry N in assay [4] amounted to 2.

As usually defined, the Kd is the concentration at which binding is half-saturated. On to cytochrome b5 (from UniProt P00167), for which the Kd in assay [5] is 440 nM.

In the case of “human cytochrome b5 K24C, unlabeled (from UniProt P00167 1-134) (natural protein)”, the stoichiometry N in assay [6] is 2.

With RNRLLLLEATIR [P450 17A1 peptide (putative b5 binding site of P450 17A1)], the Kd in assay [7] was determined as 52000 nM; in assay [8] it was 113000 nM.

B1: human cytochrome P450 17A1 (steroid 17α-hydroxylase/17,20-lyase) (enzyme)
chain: MWELVALLLLTLAYLFWPKRRCPGAKYPKSLLSLPLVGSLPFLPRHGHMHNNFFKLQKKYGPIYSVRMGTKTTVIVGHHQLAKEVLIKKGKDFSGRPQMATLDIASNNRKGIAFADSGAHWQLHRRLAMATFALFKDGDQKLEKIICQEISTLCDMLATHNGQSIDISFPVFVAVTNVISLICFNTSYKNGDPELNVIQNYNEGIIDNLSKDSLVDLVPWLKIFPNKTLEKLKSHVKIRNDLLNKILENYKEKFRSDSITNMLDTLMQAKMNSDNGNAGPDQDSELLSDNHILTTIGDIFGAGVETTTSVVKWTLAFLLHNPQVKKKLYEEIDQNVGFSRTPTISDRNRLLLLEATIREVLRLRPVAPMLIPHKANVDSSIGEFAVDKGTEVIINLWALHHNEKEWHQPDQFMPERFLNPAGTQLISPSVSYLPFGAGPRSCIGEILARQELFLIMAWLLQRFDLEVPDDGQLPSLEGIPKVVFLIDSFKVKIKVRQAWREAQAEGST
As for B1, the Kd in assay [7] is 125 nM; in assay [8], 379 nM.
